# Results reported in patent US20250340892.
# T1: Eglin C (secreted from E. coli W3110 via the MccV system, positive secretion supernatant)
# T1 chain: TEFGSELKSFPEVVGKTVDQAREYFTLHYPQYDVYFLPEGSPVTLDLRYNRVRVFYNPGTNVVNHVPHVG
# B1: neutrophil elastase (protein)
# chain: IVGGRRARPHAWPFMVSLQLRGGHFCGATLIAPNFVMSAAHCVANVNVRAVRVVLGAHNLSRREPTRQVFAVQRIFENGYDPVNLLNDIVILQLNGSATINANVQVAQLPAQGRRLGNGVQCLAMGWGLLGRNRGIASVLQELNVTVVTSLCRRSNVCTLVRGRQAGVCFGDSGSPLVCNGLIHGIASFVRGGCASGLYPDAFAPVAQFVNWIDSIIQ
# Target: T1, Eglin C (secreted from E. coli W3110 …)
protein,measurement,value
B1,"neutrophil elastase (NE) activity assay (fluorogenic substrate, RFU over time)","NE activity with Eglin C positive secretion was comparable to positive control, which is NE with purified Eglin C (1.5 µM) while NE activity with Eglin C negative secretion showed a similar level with the sample having only NE"
